B1: ATL3 (parent)
chain: YGLQGGMAFLDKRLQVKEHQHEEI
B2: DLC1 (parent)
chain: AEVVKIRDSFSNQNTETKDTKSR

Variants of: B1
Experiment: protein stability index of a GFP-peptide fusion (GPS, HEK-293T) (PSI 1-6); higher = more stable
Details: c terminus: a fixed tail appended
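Note: lentivirally expressed fusions sorted by FACS into six bins by GFP to DsRed ratio, PSI derived from sequencing read proportions per bin multiplied by bin number.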

Protein stability index of substitutions, site by site:
I24: G 3.23, Y 4.04, A 2.58, M 1.71, Q 2.14, R 2.26, S 2.56, C 3.25, T 1.79, E 2.29, K 2.35, F 4.03, D 2.33, V 2.5, H 3.42, P 2.81, L 2.51, N 2.89
E23: K 2.43, P 3.04, G 3.58, S 2.41, H 2.38, A 1.94, T 2.74, I 2.66, W 2.57, R 2.99, Y 2.76, F 2.43, C 3.04, L 2.25, V 2.17, Q 2.9, M 3.12, D 3.04, N 2.85
E22: R 2.16, W 2.76, V 1.45, M 2.24, N 3.19, Y 2.6, Q 1.75, T 1.9, P 2.96, L 2.68, S 3.33

Variants of: B2
Experiment: as above
Details: c terminus: native

Protein stability index: each site, then its substitutions
Q13: S 1.87, W 2.36, V 3.62, R 3.77, A 2.41, C 1.93, H 2.32, L 2.31, N 2.56, K 1.77, D 2.37, Y 2.92, P 2.4, E 2.9, M 1.94, F 2.26, T 2.45, G 2.33
N12: L 3.05, E 2.71, P 1.95, A 2.33, S 1.86, R 1.7, T 2.23, V 1.68, Y 1.78, G 2.51, F 1.81, M 2.5, Q 2.03, I 2.17, K 2.17, H 2.44, C 1.63
T15: H 1.77, L 2.17, K 2.21, V 2.38, N 2.52, A 2.14, P 2.08, G 4.39, C 2.08, Y 1.62, E 3.38, R 1.67, S 2.75, D 3.36, I 1.62, M 1.86, W 2.05, F 2.36, Q 2.98
F10: P 3.63, Q 3.46, N 3.64, R 4.5, A 3.76, E 3.46, K 4.18, I 2.32, S 4, V 2.95, C 2.54, M 2.93, L 3.26, T 3.68, D 4, G 4.24, H 3.71, Y 2.53
R7: G 2.87, W 1.69, V 3.12, C 2.5, Y 1.77, N 3.31, D 3.65, S 2.42, H 2.21, F 3.38, L 3.01, I 2.52, K 2.88, E 2.99, A 3.56, M 3.19, P 3.24
K5: G 3.3, V 1.94, P 2.67, T 2.88, H 2.58, Y 2.13, W 1.84, D 3.23, Q 2.43, N 2.93, R 2.33, M 2.09, I 2.02, L 2.4, S 2.77, E 3.01, C 2.88, A 2
D8: A 2.53, M 1.65, S 1.8, L 2.62, P 1.73, T 2.32, V 3.31, N 2.07, H 2.41, C 1.46, Y 3.5, Q 1.26, F 3.02, E 2.92, G 2.23, K 2.08
N14: F 1.93, D 2.33, K 2.44, R 2.48, C 2.16, A 1.86, I 2.08, Q 2.37, L 2.09, S 1.96, P 3.12, E 2.24, G 2.08, T 2.55, V 1.66, H 2.46, W 2.37
E2: D 2.99, Y 1.52, Q 1.79, C 2.43, T 3.03, F 2.11, R 1.88, G 1.95, S 2.75, L 1.03, K 1.81, M 1.63, H 2.02, N 2.04, A 1.88, V 1.7
V3: H 2, A 2.24, K 4.55, Q 2.47, T 2.19, E 2.12, F 2.09, N 3, I 1.63, S 1.95, W 2.53, R 1.89, M 2.87, P 3.46, L 2.29, G 2.12, D 3.54, Y 1.7, C 2.69
V4: R 2.3, I 1.98, L 4.87, E 2.59, C 2.3, F 2.89, D 3.04, T 2.18, H 2.14, K 2.3, N 2.48, M 2.05, P 3.04, A 1.73, G 2.01, Y 2.76, W 2.05, Q 2.81, S 2.12
I6: L 2.74, E 3.33, Y 2.65, H 2.42, A 2.47, Q 2.67, T 3.6, P 3.4, M 2.64, R 3.18, S 2.74, V 2.74, C 2.43, G 2.38, K 3.3, F 2.41, D 2.79
S11: W 1.88, K 3.15, C 2.58, P 2.54, Y 2.65, Q 2.62, E 2.4, A 1.9, N 4.69, D 2.05, G 2.36, T 2.48, R 2.78, V 2.35, L 1.88, M 1.46, H 2.61, F 2.85, I 1.9
S9: I 1.49, D 2.27, H 3.54, Q 1.87, Y 1.67, E 3.48, C 2.8, A 2.55, M 2.92, V 2.25, K 2.32, L 2.95, R 2.53, N 2.22, W 2.14, G 2, T 2.29, P 2.64, F 1.48
A1: D 3.12, V 1.92, N 3.03, R 2.73, I 2.06, H 2.51, C 2.19, Y 1.79, K 3.16, T 2.08, S 1.75, G 2.9, P 1.72, M 2.37, L 2.08, W 2.76, Q 3.03, F 2.06
E16: Q 3.17, H 3, I 1.97, M 1.51, V 3.04, Y 1.31, D 3.35, P 2.41, R 2.31, A 2.43, N 2.27, S 1.9, L 1.91, K 3.12, C 1.84, W 1.95, F 3.13, T 2.06, G 2.38
